Consider 21 sequences from the DeepSol protein solubility set.

The nature of the data set: soluble on expression in E. coli; label from the status in PepcDB or PDB records.
In the case of “MIKEAIKQLAQDIGISKIGFTTADDFDYLEKSLRASVEEGRSSGFEHKNIEERIKPRLSLASAKTIISIAIAYPHKLPVKPPKTQYKRGKITPNSWGLDYHYVLEEKLQRLAQGIESLCQDFPLEHKIMVDTGALVDTAVAQRSGIGFIGKNGLVISKEFGSYMYLGELITNLEIEPDSPVDYDCGDCHRCLDACPTSCLLGDGSMNAKRCLSFQTQDKGMMDLEFRKKIKTVIYGCDICQICCPYNKGIHNPLASEIDPELAEPELLPFLELSNSQFKKKFGMIAGSWRGKNTLQRNAIIALANGHDKSALVKLMEIIDKNNNPIHTATAIWALGEIVKKPTQELYDFILSIHSDNDAIIKERTALLNRWQF”, the “soluble on expression in E. coli” value is given as “not soluble”. As to “GEINGVSGIFPASSVEVIKQLPQPPPLCRALYNFDLRDKDKSENQDCLTFLKDDVITVISRVDENWAEGKLGDKVGIFPILFVEPNVSARHLLQNKGHQLSRTRHLSLMSSPSRGKATNTSSLRKSPGSRRKGSGQFSMTTALNTLNRTVHSPEGHQMVEISTPMLISSNSPSVLTQHGDKADFPTSSTGQVSSSQPAPASPGHSTAMVSVPSSQQHLSNNMFVALHTYSAHRPEELDLQKGEGIRVLGKYQDGWLKGLSLLTGRTGIFPSDYVIPVFSSTARKTSSFPDSRSPTVCTTWALSTSSVSSQGSFAEGDPRQSGPFKSVFVPTAVVNPSRSTPGPGSSGQGSLRKVRSSMRKNGSLQRPVQSGIPTFMVGSLRCSPTMVIRPQRFQFYPPQGMTPSPTPIMVEMGSKSIYTGEPALTCINRGSKTRIHSAGNSIIMEGKETPIKSEPPPKPPASAPPSILVKPENSKNGTEKQVKTVRFQNYSPPPTKHSASSPTSGKHDHPATLKGSQHEAVSSGGEMTILFAHRSGCHSGQQTDLRRKSAFGKTMPLLSTASATQTLFPSK”, the “soluble on expression in E. coli” value is on record as “soluble”.

In the case of “SAAALRVAAVGARLSVLASGLRAAVRSLCSQATSVNERIENKRRTALLGGGQRRIDAQHKRGKLTARERISLLLDPGSFVESDMFVEHRCADFGMAADKNKFPGDSVVTGRGRINGRLVYVFSQDFTVFGGSLSGAHAQKICKIMDQAITVGAPVIGLNDSGGARIQEGVESLAGYADIFLRNVTASGVIPQISLIMGPCAGGAVYSPALTDFTFMVKDTSYLFITGPDVVKSVTNEDVTQEELGGAKTHTTMSGVAHRAFENDVDALCNLRDFFNYLPLSSQDPAPVRECHDPSDRLVPELDTIVPLESTKAYNMVDIIHSVVDEREFFEIMPNYAKNIIVGFARMNGRTVGIVGNQPKVASGCLDINSSVKGARFVRFCDAFNIPLITFVDVPGFLPGTAQEYGGIIRHGAKLLYAFAEATVPKVTVITRKAYGGAYDVMSSKHLCGDTNYAWPTAEIAVMGAKGAVEIIFKGHENVEAAQAEYIEKFANPFPAAVRGFVDDIIQPSSTRARICCDLDVLASKKVQRPWRKHANIPL”, the “soluble on expression in E. coli” value is on record as “soluble”.

Turning to “MGSDKIHHHHHHMIIGDKRLDVIHNIKQAANERNFTAKTEIGDPVMSSEEKLALVEGFWQKQDQAKTKFDGTVGHELLQLLTKTISGSTKVNGLGKLKGLPKGGAIVTANHFNQVDALAVNRLAQKAHRRMDIVIEDTNLMLPGFFSYIMNNMGSIPLTQSPNYLGREFIQHLNQAFNQNHWVLIFPEQEMWWNYRKPRKPQRGAYYFAAKCNVPVISTFVEIQDLPKLEKQNEHFYQTRYTVHVLDVLYPDPTKTASENASRLMEEDYKLKVQAYERVYKKKLDYDFTSWDIAGWRGE”, the “soluble on expression in E. coli” value is “not soluble”.

Take “GKKQEPFEQVTIDIEEQHQGSVMEALGIRKGEVKDMIPDGKGRTRLEYVIPSRGLIGFRNEFMTMTSGTGLLYSSFSHYDDVKLGEIGQRKNGVLISNATGKALAYALFGLQERGKLMIEHGVDVYEGQI”: the “soluble on expression in E. coli” value is “not soluble”. Take “MARLLEEHGFETKTNVIVQGNCVEQEIDVVAERDGERYMIECKFHNIPVYTGLKEAMYTYARFLDVEKHGFTQPWIFTNTKFSEEAKKYAGCVGIKLTGWSYPEKEGIEVLLESKGLYPITILRIDKEVLDELVRAGLVFCRDVVSAGEEKLREIGLSAKKAREVIAEAKKVIG”: the “soluble on expression in E. coli” value is listed as “soluble”.

With “DFVGGTKMNMPAAQLETSEVADTFKDATGIEPELVQIVGSGDTRILEINSERLSEDQISQARVALFEKYQPVGSQGQPTPDAIGDSTVSESWGSTITQR”, the “soluble on expression in E. coli” value is “not soluble”. For “SNAMSVQTIERLQDYLLPEWVSIFDIADFSGRMLRIRGDIRPALLRLASRLAELLNESPGPRPWYPHVASHMRRRVNPPPETWLALGPEKRGYKSYAHSGVFIGGRGLSVRFILKDEAIEERKNLGRWMSRSGPAFEQWKKKVGDLRDFGPVHDDPMADPPKVEWDPRVFGERLGSLKSASLDIGFRVTFDTSLAGIVKTIRTFDLLYAEAEKGS” the value was “soluble”; for “MTTCFCTGARSGPTVAISADLHQALRGIVAQRMATDPAHDLAHLDRVWVNVQAIASPGADRDVLLAASYLHDLVNLPKNAPDRHTASRRSADEAAPILRDLGFDEAQIAATGHAIAAHSFSAGISPESEEARILRDADRLDALGAIGIARNFSVSGSLGRALYDPADPFCERRTPDDALYSLDHWRVKLLSLPQGMLTDKGRALAEARIALMLRFLDDFAAEIGTPLPEGWTRGLEHHHHHH”, “soluble”; for “MASVTFSVPKGFTEFSGLRSSSASLPFGKKLSSDEFVSIVSFQTSAMGSSGGYRKGVTEAKLKVAINGFGRIGRNFLRCWHGRKDSPLDIIAINDTGGVKQASHLLKYDSTLGIFDADVKPSGETAISVDGKIIQVVSNRNPSLLPWKELGIDIVIEGTGVFVDREGAGKHIEAGAKKVIITAPGKGDIPTYVVGVNADAYSHDEPIISNASCTTNCLAPFVKVLDQKFGIIKGTMTTTHSYTGDQRLLDASHRDLRRARAAALNIVPTSTGAAKAVALVLPNLKGKLNGIALRVPTPNVSVVDLVVQVSKKTFAEEVNAAFRDSAEKELKGILDVCDEPLVSVDFRCSDFSTTIDSSLTMVMGDDMVKVIAWYDNEWGYSQRVVDLADIVANNWK”, “soluble”. For “MGSDKIHHHHHHMTRYKLSAEVSFSKPSEIMGRLYILPYRDNAQKVLHFNIDHPSFCKVSINQDRFRNEHLDFKCNPSDDFSIIISYEVEVNSFSKSENEEEVFLSSSKYVNVDKFKMINVRYFSFDDLIDEVISMVRDSIRYDKNNKSVKSAFGSLIMGSGVCVNYSHVAIGILRALGIPARYVIGLIPFSTKEAHAWIEVKIGDVWFPVDPTNGIKGMQYLKWAIGRDDNDVRSKIWYSKPVSFDFSFDWNFR”, the “soluble on expression in E. coli” value is listed as “not soluble”.

Regarding “MQLKTEVFLVEKEILVYIQTKSIGIEDNSIKLKMTPLLKKFANIGDKVYLKHSTFMLPTKIKAKKEDEVLLEFPSLTPEKPLGDRRNVRVLSDPENPVKVRFNEITKEVYDISEVGFSIKCGMEEIDEILKNKEISEVEIYLPNLEEWIKGSARLVNVREFENGDILCGYELFLDTPDEVKVRFYIYERVKEILKGEK”, the “soluble on expression in E. coli” value was “not soluble”. With “SMAPWGKRLAGVRGVLLDISGVLYDSGAGGGTAIAGSVEAVARLKRSRLKVRFCTNESAASRAELVGQLQRLGFDISEQEVTAPAPAACQILKERGLRPYLLIHDGVRSEFDQIDTSNPNCVVIADAGESFSYQNMNNAFQVLMELEKPVLISLGKGRYYAATSGLMLDVGPYMKALEYACGIKAEVVGKPSPEFFKSALQAIGVEAHQAVMIGDDIVGDVGGAQRCGMRALQVRTGKFRPSDEHHPEVKADGYVDNLAEAVDLLLQHADK”, the “soluble on expression in E. coli” value is “soluble”. For “MSDSFGVYVHVPFCSSRCGYCDFNTYTPGELGGTASPESYLDALEKELELAAASGTTRPATTVFIGGGTPSMLGASGLTRVLSAVRNTIGIAPGAEVTTESNPETTSPEFFSELLDAGYNRISLGMQSASSSVLRVLERKHTPGRAFDAALEAMNAGFLHVNLDMIYGTPTETDDDVRLTLERALDTGVDHISAYSLIVEDGTAMARKVHKGQLPPPNEDVYADRYGLIDTALRAQGFDWYEVSNWAKPGGECQHNLGYWLDGDWWGAGPGAHSHIASRRFFNVKHPSTYAQHLADGQLPIKEEELLDSTERHEESVMLGLRLRQGLELSRFTEAERAVIEKYVGLKLLHIYDGRVASTLQGRLLIDGIIADILVAYLEHHHHHH” the value was “not soluble”; for “MGHHHHHHSHMANSAGSMANSAGSDKGEQYTLAVGHSLPPALESKLNEIDEISVKTFAKPEEAVDEGKADAYLNVPKEFDSYVNSMTPFKVDVYGNSIDQGSSNAMQLVQSALDQYKNEIVQQRLTNKHIDQSVIQPFTIQQKEADEEKGTSAI”, “not soluble”. Regarding “YTVEPVQDGERSVTLRRAGGTPLVAAMYHLPAAGSPDFVGLDLAATILADTPSGRLYHALVPTKLASGVFGFTMDQLDPGLAMFGAQLQPGMDQDKALQTLTATLESLSSKPFSQEELERARSKWLTAWQQTYADPEKVGVALSEAIASGDWRLFFLQRDRVRDAKLDDVQRAAVAYLVRSNRTEGRYIPTEKPQRAPLAQRADLAAV”, the “soluble on expression in E. coli” value is reported as “soluble”.

Take “MASAEVVSKLEAAFAKLQNASDCHSLLKKYLTKEVFDQLKGKQTKMGATLMDVIQSGVENLDSGIGVYAPDAESYTLFAALLDPIIEDYHKGFKPSDKQPPKDSGDLNTFIDVDPDKKYVISTRVRCGRSLEGYPFNPCLKKQQYEEMESRVKGQLESMSGELRGKYYPLTGMTKETQKQLIDDHFLFKEGDRFLQAAHACKFWPTGRGIYHNDAKTFLVWVNEEDHLRIISMQKGGNLKEVFGRLVTAVGVIEEKVKFSRDDRLGFLTFCPTNLGTTIRASVHIKLPKLGADRKKLEEVAAKYNLQVRGTAGEHSDSPDGVYDISNKRRLGLSEYEAVKEMQDGILELIKAEESAR”: the “soluble on expression in E. coli” value is reported as “soluble”. As to “MEKRELKVKTLSEVRDYEIPILKETVFDIFGGLPQAFIGISGEAGAGKTQTLMRLMADIAKREPVLVVLTEQSPHRWKAIFKKYDTNHENVRVVFKYYMDQDFIKELSQREERIIVIDSISGAVSEQKARQVAKDLRSLVEWKNKWLVGALQVRKEGVAGGEGVEHMIEVSYEITYFQLKPQNKWLYEKLKPFGYEVGDYVRLIRNTFDKVRGVQNTNLVVVDISKKNGILEFRELGRKEGEVNHE”, the “soluble on expression in E. coli” value is on record as “not soluble”.

In the case of “MTIIKYIKFVVIIVIVTIVFSCSKNEAGNSEYDPSLPISLTDFFPIQGGMATRMVIEGANFGTDLSQIKVFFNQKEASILNVKNSIIYLLVPKLPGNDCIVTVKVGNQEARFTRNFQYIENYSVTTIAGQPGTNLFVEGTLAAAQFGPVQHLAIDDENNLFITERNGSDGKGTCSVLNEESGTVTFLFKASDNLNVPTVNAQTQNVYIPLDGGYTFYELNPVNQWIAKSRLVLHPSKEQQEAGMDDFEINWKHSLAFSRYDNMIYTRSYGGDLIKVDPETRVGQKIGNFFPNTDSFIVAHPTQPEILYIAYAAKHVIYTYNIETGEHKLFAGAFGQSGWNDGIATDAEFNSPRQMSLDMEGNIYIADSGNHCIRMIDKNGIVTTPIGQPGEAGYADGSPDMALLNDPRGVAVNSEGDVYIADLGNRCIRKLTLQLEHHHHHH”, the “soluble on expression in E. coli” value is recorded as “not soluble”. In the case of “MSLAREDYAAQVALLVRVLPYVAKEEIFALKGGTAINLFYRDLPRLSVDIDLTYLPVKDRAESLVEINDAMDRIAAAIEGGITGAKAQRIAGGGGGATRALARLGTAEIKIETSPVTRGVVHDPEQREVSEAVEEEFGYATMNIVSFEDLFGGKLHAALDRQHPRDLYDVKLLYENEGFTDELFRTFLIYVASSPRPPHELLNPNLIDLDQPYAREFEGMTKEAVDLAELIATRDRLIGDIQSRLNDDAKRFLRTLHEGDPDFDAIDRPQGAGLPAVRWKLINVNNPNKNAQAAFTGAVVELLPFCGEGHHHHHH”, the “soluble on expression in E. coli” value is “not soluble”. For “MTYEIVIAGFGGQGVLSMGKILAYSGLMEDKEVSWMPSYGPEQRGGTSNVTVIVSDEQVSSPVLNEYDIVIVLNQPSLDKFEARVKKGGILVYDPDSIVLKNKRDDIQIYEVDATQESLRMGNQKAFNMIVLGGVLKVAPMVKIESVIKGLKKTLPERHHKLIPMNEQAIQRGMEIIKQIH” the value was “not soluble”.
